B1: CD4M48_U2 (peptide)
peptide: XNLHFCQLRCKSLGLLGRCAXTXCACV
modifications: not fully specified; N-terminal thiopropionic acid (TPA) at position 1; (D)Pro at 21; para-cyclo-pentylethoxyphenylalanine (U2) at 23; C-terminal amide
B2: CD4M48_U3 (peptide)
peptide: XNLHFCQLRCKSLGLLGRCAXTXCACV
modifications: not fully specified; N-terminal thiopropionic acid (TPA) at position 1; (D)Pro at 21; Phe(para-[phenyl-ethoxy]) (U3) at 23; C-terminal amide
B3: CD4M48T100 (peptide)
peptide: XNLHFCQLRCKSLGLLGRCAXTFCACV
modifications: not fully specified; N-terminal thiopropionic acid (TPA) at position 1; (D)Pro at 21; C-terminal amide; Lys11 carries a mercapto group ligated to a maleimido group of a polylysine construct with 100 Å PEGylated linkers
notes: tetramer of CD4M48-SH on a polylysine construct
B4: Alexa labeled mini-protein CD4M48 (peptide)
peptide: XNLHFCQLRCKSLGLLGRCAXTFCACV
modifications: not fully specified; N-terminal thiopropionic acid (TPA) at position 1; (D)Pro at 21; C-terminal amide; Alexa-488 on Lys11
notes: also called CD4M48-F1; Alexa 488-labeled CD4M48
B5: Alexa labeled mini-protein CD4M33 (peptide)
peptide: XNLHFCQLRCKSLGLLGKCAGSXCACV
modifications: not fully specified; biphenylalanine (Bip) at 23; Alexa-488 on Lys11
B6: CD4M48-heparin (peptide)
peptide: XNLHFCQLRCKSLGLLGRCAXTFCACV
modifications: not fully specified; N-terminal thiopropionic acid (TPA) at position 1; (D)Pro at 21; C-terminal amide; Lys11 carries a hydrazino group ligated to heparin mono-aldehyde
B7: CD4M47 (peptide)
peptide: XNLHFCQLRCKSLGLLGRCAXTXCACV
modifications: not fully specified; N-terminal thiopropionic acid (TPA) at position 1; (D)Pro at 21; biphenylalanine (Bip) at 23; C-terminal amide
B8: CD4M48_U1 (peptide)
peptide: XNLHFCQLRCKSLGLLGRCAXTXCACV
modifications: not fully specified; N-terminal thiopropionic acid (TPA) at position 1; (D)Pro at 21; para-cyclo-hexylmethoxyphenylalanine (U1) at 23; C-terminal amide
B9: CD4M48T50 (peptide)
peptide: XNLHFCQLRCKSLGLLGRCAXTFCACV
modifications: not fully specified; N-terminal thiopropionic acid (TPA) at position 1; (D)Pro at 21; C-terminal amide; Lys11 carries a mercapto group ligated to a maleimido group of a polylysine construct with 50 Å PEGylated linkers
notes: as for B3
B10: CD4M48D50 (peptide)
peptide: XNLHFCQLRCKSLGLLGRCAXTFCACV
modifications: not fully specified; N-terminal thiopropionic acid (TPA) at position 1; (D)Pro at 21; C-terminal amide; Lys11 carries a mercapto group ligated to a maleimido group of a polylysine construct with 50 Å PEGylated linkers
notes: dimer of CD4M48-SH on a polylysine construct
B11: CD4M48 (peptide)
peptide: XNLHFCQLRCKSLGLLGRCAXTFCACV
modifications: not fully specified; N-terminal thiopropionic acid (TPA) at position 1; (D)Pro at 21; C-terminal amide
notes: optimized mini-protein, Phe at 23; unlabelled monomer; also called B4T
B12: CD4M48D100 (peptide)
peptide: XNLHFCQLRCKSLGLLGRCAXTFCACV
modifications: not fully specified; N-terminal thiopropionic acid (TPA) at position 1; (D)Pro at 21; C-terminal amide; Lys11 carries a mercapto group ligated to a maleimido group of a polylysine construct with 100 Å PEGylated linkers
notes: as for B10
B13: Alexa labeled mini-protein CD4M47 (peptide)
peptide: XNLHFCQLRCKSLGLLGRCAXTXCACV
modifications: not fully specified; N-terminal thiopropionic acid (TPA) at position 1; (D)Pro at 21; biphenylalanine (Bip) at 23; C-terminal amide; Alexa-488 on Lys11
notes: also called CD4M47-F; CD4M47-F1

Assays:
[1] = molecular target: T1, gp120SF162 (HIV-1, UniProt P19550 32-502); assay: competitive ELISA, IC50 values of Table III (largest ratio falls on gp120SF162)
T1 construct: domain: gp120
Protocol: Competition binding assays in ELISA were performed in 96-wells plates (MAXISORB). Briefly, 50 ng per well of antibody D7324 (AALTO BIO REAGENTS) were coated overnight at 4° C.

[2] = molecular target: MJ4 pseudovirus envelope (HIV-1); assay: cell-based or functional assay
[3] = molecular target: CA10-3 pseudovirus envelope (HIV-1); assay: cell-based or functional assay
[4] = molecular target: Mn pseudovirus envelope (HIV-1, UniProt P05877 32-856); assay: cell-based or functional assay
[5] = molecular target: BaL virus envelope (HIV-1 groupM); assay: cell-based or functional assay
[6] = molecular target: VI1358 pseudovirus envelope (HIV-1); assay: cell-based or functional assay
[7] = molecular target: VI829 pseudovirus envelope (HIV-1); assay: cell-based or functional assay
[8] = molecular target: SF162 pseudovirus envelope (HIV-1, UniProt P19550 32-847); assay: cell-based or functional assay
[9] = molecular target: HIV-1 isolate 77 envelope (HIV-1); assay: cell-based or functional assay
[10] = molecular target: T1, gp120SF162; assay: fluorescence polarization competition: 6 nM gp120SF162, 1 nM fluorescein-CD4M33
Description: (§1) Binding assays by fluorescence anisotropy were made in a LJL Analyst (LJL BIOSYSTEMS) microplate reader using 384-wells plates.

[11] = molecular target: NL4.3 env (HIV-1 groupM); assay: cell-based or functional assay
[12] = molecular target: T2, gp120 SF2 (HIV-1, UniProt P03378 32-509); assay: fluorescence anisotropy, ratio of the Kd values of Table I (lower end falls on SF2)
T2 construct: domain: gp120

[13] = molecular target: T1, gp120SF162; assay: fluorescence anisotropy, ratio of the Kd values of Table I (upper end falls on SF162)
[14] = molecular target: T3, gp120 IIIB (HIV-1); assay: fluorescence anisotropy, Alexa-488-labelled mini-protein (0.5 nM) titrated with gp120 in solution
T3 construct: domain: gp120
Protocol: as §1
(§2) Direct binding assays of fluorescent peptides were performed in triplicates by adding 10 μL of 0.5 nM Alexa-labeled mini-proteins and 10 μL of serial dilutions (two-thirds dilutions in 16 wells, starting at 200 nM) of gp120 SF2, SF162, BaL, IIIB and YU2. Collected data were fitted to the following equation using a non-linear regression program (Prism, GraphPad software Inc.):

[15] = molecular target: T4, gp120 Bal (HIV-1); assay: as above
T4 construct: domain: gp120
Protocol: as §1, §2

[16] = molecular target: BaL virus envelope (HIV-1 groupM); assay: cell-based or functional assay; remark: listed apart in the source
[17] = molecular target: HIV-1 isolate 6393 envelope (HIV-1); assay: cell-based or functional assay
[18] = molecular target: HIV-1 isolate 714 envelope (HIV-1); assay: cell-based or functional assay
[19] = molecular target: T4, gp120 Bal; assay: fluorescence anisotropy, ratio of the Kd values of Table I (lower end falls on Bal)
[20] = molecular target: T3, gp120 IIIB; assay: fluorescence anisotropy, 0.5 nM CD4M47-F titrated with gp120
[21] = molecular target: T1, gp120SF162; assay: as above
[22] = molecular target: T2, gp120 SF2; assay: as above
[23] = molecular target: T5, gp120YU2 (HIV-1, UniProt P35961 32-498); assay: as above
T5 construct: domain: gp120

[24] = molecular target: T4, gp120 Bal; assay: as above

Row | Binder | EC50, single-cycle HIV-1 pseudovirus infection of GHOST cells (luciferase) [2] | EC50, single-cycle HIV-1 pseudovirus infection of GHOST cells (luciferase) [3] | EC50, single-cycle HIV-1 pseudovirus infection of GHOST cells (luciferase) [4] | EC50, single-cycle HIV-1 pseudovirus infection of GHOST cells (luciferase) [5] | EC50, single-cycle HIV-1 pseudovirus infection of GHOST cells (luciferase) [6] | EC50, single-cycle HIV-1 pseudovirus infection of GHOST cells (luciferase) [7] | EC50, single-cycle HIV-1 pseudovirus infection of GHOST cells (luciferase) [8] | IC50, acute HIV-1 infection of PM1 cells (p24, day 5) [9] | IC50 (read off the curve) [10] | IC50, HIV-1 infection of PBMC (p24, day 12) [11] | other results
1 | B1 | 773 nM | 3.6 nM | 0.08 nM | 4 nM | 42 nM | 98 nM | 1.6 nM |  |  |  | fold enhanced affinity compared to CD4M47 [1]: ≤ 3 fold
2 | B2 | > 3270 nM | 29 nM | 0.13 nM | 67 nM | 364 nM | 950 nM | 2 nM |  |  |  | 
3 | B3 |  |  |  |  |  |  |  | < 4 nM | ~2 nM | 1.3 nM | 
4 | B4 |  |  |  |  |  |  |  |  |  |  | factor by which the Kd is smaller than that of CD4M33 [12]: 1.1 fold; factor by which the Kd is smaller than that of CD4M33 [13]: 6.1 fold; Kd [14]: 0.982 nM; Kd [15]: 5.46 nM
5 | B5 |  |  |  |  |  |  |  |  |  |  | Kd [14]: 3.81 nM; Kd [15]: 6.36 nM
6 | B6 |  |  |  |  |  |  |  | < 4 nM |  | < 80 nM | IC50, acute HIV-1 infection of PM1 cells (p24, day 5) [16]: 850 nM; IC50, HIV-1 infection of MT-4 cells (MTS viability, day 5) [11]: 112 nM
7 | B7 | > 3410 nM | 91 nM | 1 nM | 108 nM | 579 nM | 1200 nM | 22 nM |  |  |  | 
8 | B8 | 87 nM | 0.3 nM | 0.07 nM | 2 nM | 5 nM | 11 nM | 0.65 nM |  |  |  | 
9 | B9 |  |  |  |  |  |  |  |  | ~1 nM |  | 
10 | B10 |  |  |  |  |  |  |  |  | ~1 nM |  | 
11 | B11 | > 3300 nM | 63 nM | 4 nM | 77 nM | 57 nM | 755 nM | 5 nM | 250 nM | ~3 nM | 0.44 nM | IC50, acute HIV-1 infection of PM1 cells (p24, day 5) [17]: 95 nM; IC50, acute HIV-1 infection of PM1 cells (p24, day 5) [16]: 185 nM; IC50, acute HIV-1 infection of PM1 cells (p24, day 5) [18]: 670 nM; IC50, HIV-1 infection of MT-4 cells (MTS viability, day 5) [11]: 2.6 nM
12 | B12 |  |  |  |  |  |  |  | 3 nM | ~2 nM | < 1.8 nM | 
13 | B13 |  |  |  |  |  |  |  |  |  |  | fold improvement of affinity over CD4M33 [13]: 5.2 to 12.3 fold; fold improvement of affinity over CD4M33 [19]: 5.2 to 12.3 fold; EC50 (read off the curve) [20]: ~0.9 nM; EC50 (read off the curve) [21]: ~0.3 nM; EC50 (read off the curve) [22]: ~0.3 nM; EC50 (read off the curve) [23]: ~3 nM; EC50 (read off the curve) [24]: ~1 nM; Kd [14]: 0.589 nM; Kd [15]: 1.22 nM

Reference: patent publication US20090285798A1 (COMMISSARIAT A L ENERGIE ATOMIQUE, published 2009)
